The chains are these.
T1: Tfb1 (S. cerevisiae, UniProt P32776 1-642)
T1 sequence (looked up): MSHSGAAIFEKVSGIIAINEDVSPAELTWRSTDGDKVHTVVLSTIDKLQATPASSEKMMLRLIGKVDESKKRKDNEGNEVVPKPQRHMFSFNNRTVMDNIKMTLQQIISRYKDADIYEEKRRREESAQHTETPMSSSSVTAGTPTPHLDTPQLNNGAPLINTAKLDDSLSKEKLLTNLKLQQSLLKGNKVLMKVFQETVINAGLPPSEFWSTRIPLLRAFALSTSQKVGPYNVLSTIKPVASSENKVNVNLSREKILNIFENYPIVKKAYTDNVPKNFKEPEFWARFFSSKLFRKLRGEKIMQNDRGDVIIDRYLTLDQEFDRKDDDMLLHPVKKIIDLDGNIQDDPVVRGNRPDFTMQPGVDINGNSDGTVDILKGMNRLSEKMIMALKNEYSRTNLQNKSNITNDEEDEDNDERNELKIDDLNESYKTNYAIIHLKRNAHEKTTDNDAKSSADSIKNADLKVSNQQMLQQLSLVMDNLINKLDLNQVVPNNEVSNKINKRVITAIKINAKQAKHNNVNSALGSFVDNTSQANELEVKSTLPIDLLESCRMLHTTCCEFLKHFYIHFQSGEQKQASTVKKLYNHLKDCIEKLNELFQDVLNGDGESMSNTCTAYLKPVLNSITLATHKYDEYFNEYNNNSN

T2: Ssl2 (S. cerevisiae, UniProt Q00578 1-843)
T2 sequence (looked up): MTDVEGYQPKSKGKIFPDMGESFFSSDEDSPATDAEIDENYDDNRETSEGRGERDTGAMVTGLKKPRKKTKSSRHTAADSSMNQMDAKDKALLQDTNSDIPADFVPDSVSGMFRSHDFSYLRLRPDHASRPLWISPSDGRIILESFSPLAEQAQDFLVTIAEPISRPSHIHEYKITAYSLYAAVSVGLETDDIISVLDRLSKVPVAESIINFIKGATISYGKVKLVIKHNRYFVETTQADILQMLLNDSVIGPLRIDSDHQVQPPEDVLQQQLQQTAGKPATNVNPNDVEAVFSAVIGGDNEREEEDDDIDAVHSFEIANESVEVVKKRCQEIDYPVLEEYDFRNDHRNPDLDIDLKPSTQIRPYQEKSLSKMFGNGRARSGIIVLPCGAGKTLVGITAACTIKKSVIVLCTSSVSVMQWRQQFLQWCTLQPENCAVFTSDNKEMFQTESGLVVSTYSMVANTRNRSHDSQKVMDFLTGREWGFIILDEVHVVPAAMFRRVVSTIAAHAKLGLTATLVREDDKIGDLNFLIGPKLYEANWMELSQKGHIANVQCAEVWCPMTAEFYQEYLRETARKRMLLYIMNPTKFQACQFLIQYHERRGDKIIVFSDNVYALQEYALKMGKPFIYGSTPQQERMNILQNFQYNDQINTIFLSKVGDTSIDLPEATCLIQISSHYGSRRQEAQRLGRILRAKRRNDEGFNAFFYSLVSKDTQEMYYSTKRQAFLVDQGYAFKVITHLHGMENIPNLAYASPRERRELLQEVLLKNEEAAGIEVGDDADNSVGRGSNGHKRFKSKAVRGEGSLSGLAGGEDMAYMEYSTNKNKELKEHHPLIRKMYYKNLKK

T3: Tfb2 (S. cerevisiae, UniProt Q02939 1-513)
T3 sequence (looked up): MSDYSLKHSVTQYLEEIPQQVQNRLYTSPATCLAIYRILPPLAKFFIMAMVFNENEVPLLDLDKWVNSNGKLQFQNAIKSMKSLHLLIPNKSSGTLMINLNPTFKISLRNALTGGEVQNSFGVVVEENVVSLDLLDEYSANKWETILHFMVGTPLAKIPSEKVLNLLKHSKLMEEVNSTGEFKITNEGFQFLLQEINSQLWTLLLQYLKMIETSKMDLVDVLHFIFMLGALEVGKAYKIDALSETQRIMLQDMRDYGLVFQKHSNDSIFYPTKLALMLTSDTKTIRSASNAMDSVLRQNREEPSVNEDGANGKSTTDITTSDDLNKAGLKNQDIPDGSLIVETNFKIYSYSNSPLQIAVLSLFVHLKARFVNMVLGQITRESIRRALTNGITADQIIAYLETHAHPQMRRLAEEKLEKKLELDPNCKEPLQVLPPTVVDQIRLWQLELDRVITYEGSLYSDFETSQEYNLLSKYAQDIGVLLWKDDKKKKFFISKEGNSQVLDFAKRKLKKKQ

T4: Med8 (S. cerevisiae, UniProt P38304 1-223)
T4 sequence (looked up): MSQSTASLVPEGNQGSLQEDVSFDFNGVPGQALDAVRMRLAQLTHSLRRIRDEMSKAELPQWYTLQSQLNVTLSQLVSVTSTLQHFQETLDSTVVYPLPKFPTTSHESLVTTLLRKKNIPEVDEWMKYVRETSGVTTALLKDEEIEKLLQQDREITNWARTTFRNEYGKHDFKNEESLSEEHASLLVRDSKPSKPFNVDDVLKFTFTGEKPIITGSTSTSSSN

T5: TFIIE (Tfa1 and Tfa2) (S. cerevisiae, UniProt P36100 1-482; P36145 1-328)
T5 sequence (looked up) 1: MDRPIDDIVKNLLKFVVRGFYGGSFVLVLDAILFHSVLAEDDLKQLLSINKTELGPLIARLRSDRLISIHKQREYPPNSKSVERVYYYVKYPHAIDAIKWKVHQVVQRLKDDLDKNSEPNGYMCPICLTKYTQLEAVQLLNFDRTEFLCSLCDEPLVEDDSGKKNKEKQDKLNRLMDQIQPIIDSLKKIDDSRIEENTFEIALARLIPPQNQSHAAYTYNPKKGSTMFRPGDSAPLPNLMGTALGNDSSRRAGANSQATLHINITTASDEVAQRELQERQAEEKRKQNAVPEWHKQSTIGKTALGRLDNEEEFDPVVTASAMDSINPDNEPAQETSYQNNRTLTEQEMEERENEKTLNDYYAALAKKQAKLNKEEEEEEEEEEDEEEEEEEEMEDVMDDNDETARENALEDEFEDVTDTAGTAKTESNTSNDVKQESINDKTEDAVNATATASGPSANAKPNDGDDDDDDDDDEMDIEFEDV
T5 sequence (looked up) 2: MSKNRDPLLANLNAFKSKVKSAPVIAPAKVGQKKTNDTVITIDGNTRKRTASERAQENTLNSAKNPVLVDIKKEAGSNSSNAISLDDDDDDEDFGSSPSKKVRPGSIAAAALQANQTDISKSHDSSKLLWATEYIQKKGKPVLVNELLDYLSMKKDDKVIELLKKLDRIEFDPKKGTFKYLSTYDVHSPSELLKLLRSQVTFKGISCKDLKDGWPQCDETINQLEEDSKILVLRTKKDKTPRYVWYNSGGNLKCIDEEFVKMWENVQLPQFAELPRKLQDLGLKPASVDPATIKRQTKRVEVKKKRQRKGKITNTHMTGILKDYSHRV

B1: Tfa1 (TFIIE subunit) (natural protein, S. cerevisiae, UniProt P36100 1-482, looked up)
chain: T5 sequence (looked up) 1
B2: Rpb4 (Pol II stalk subunit) (natural protein, S. cerevisiae)
chain: MNVSTSTFQTRRRRLKKVEEEENAATLQLGQEFQLKQINHQGEEEELIALNLSEARLVIKEALVERRRAFKRSQKKHKKKHLKHENANDETTAVEDEDDDLDEDDVNADDDDFMHSETREKELESIDVLLEQTTGGNNKDLKNTMQYLTNFSRFRDQETVGAVIQLLKSTGLHPFEVAQLGSLACDTADEAKTLIPSLNNKISDDELERILKELSNLETLY
B3: Tfb3 (natural protein, S. cerevisiae, UniProt Q03290 1-321, looked up)
chain: MLMDEYEENKDMCPICKTDRYLSPDVKFLVNPECYHRICESCVDRIFSLGPAQCPYKGCDKILRKNKFKTQIFDDVEVEKEVDIRKRVFNVFNKTIDDFNGDLVEYNKYLEEVEDIIYKLDHGIDVAKTEEKLRTYEELNKQLIMNNLERSRTEIESFEQRQKFEKEMKLKKRLLERQIEEEERMNKEWTKKEIVNRLSTTTQDINETIEGVKNTVKLKKSSARRKLEELNRVLKNNPYFNSNVNVQNSRLKDAVPFTPFNGDREAHPRFTLKGSVYNDPFIKDLEHRKEFIASGFNTNYAYERVLTEAFMGLGCVISEEL
B4: Med22 (natural protein, S. cerevisiae, UniProt P32570 1-121, looked up)
chain: MSNQALYEKLEQTRTILSVKLAELINMTTIADRNDDDEGSFAQENSELAVATTSVMMVNNQTMQLIKNVQDLLILTRSIKEKWLLNQIPVTEHSKVTRFDEKQIEELLDNCIETFVAEKTT
B5: Rpb7 (Pol II stalk subunit) (natural protein, S. cerevisiae, UniProt P34087 1-171, looked up)
chain: MFFIKDLSLNITLHPSFFGPRMKQYLKTKLLEEVEGSCTGKFGYILCVLDYDNIDIQRGRILPTDGSAEFNVKYRAVVFKPFKGEVVDGTVVSCSQHGFEVQVGPMKVFVTKHLMPQDLTFNAGSNPPSYQSSEDVITIKSRIRVKIEGCISQVSSIHAIGSIKEDYLGAI

Experiment [1] addresses T1, Tfb1. As to the kind of experiment: cryo-EM structure.
For experiment [2], the target named is T2, Ssl2. The experiment can be described thus: cryo-EM structure.
Experiment [3] addresses T3, Tfb2. As to the kind of experiment: cross-linking.
Experiment [4] has as its target T4, Med8. As to the kind of experiment: cryo-EM structure.
Experiment [5] has as its target T5, TFIIE (Tfa1 and Tfa2). The experiment can be described thus: cryo-EM structure.
Experiment [6] has as its target B2. The experiment can be described thus: cryo-EM structure.
Experiment [7] deals with B3. As to the kind of experiment: cryo-EM structure.

Turning to B1, the binding result in experiment [1], in experiment [2] and in experiment [3] was “binds” in each case.
Regarding B2, in experiment [4], the binding result is given as “binds”.
As for B3, the binding result in experiment [5] is “binds”.
With B4, the binding result in experiment [6] is “binds”.
B5: in experiment [7], the binding result was “binds”.

Values taken from article PMC6078178 (Nature, 2017).
